Substitutions are numbered along the chain they refer to.
B1: 75110_05A11A (antibody, V domains shown)
VH: EVQLVESGGGLVKPGGSLTLSCAASGFTFSNTWMSWVRQAPGKGLEWVGRIKSKIDGGTTDYAAPVKGRFTISRDDSKNTLYLQMNSLKTEDTAVYYCTTSGTYSSGWGLFDYWGQGTLVTVSS
VL: DIQMTQSPSSLSASVGDRVTITCQASQDISNYLNWYQQKPGKAPKLLIYDTSNLEAGVPSRFSGSGSGTHFTLTISSLQPEDIATYYCQQYDNLPFTFGGGTRVEIK
notes: Tested as non-clonal hybridoma supernatant (AlivaMab Mouse Kappa), detected with anti-mouse Fc and anti-human kappa
B2: 75110_05E13A (antibody, V domains shown)
VH: EVQLVESGGDLVKPGGSLRLSCAASGFSFSNAWMSWVRQAPGKGLEWVGRVESKTDGGTTDYAAPVKDRFTISRDDSKYTLYLQMNSLKTEDSAVYYCTIGGGFGLELYGFFDYWGQGTLVTVSS
VL: DIQMTQSPSTLSASVGDRVTITCRASQSISSWLAWYQQKPGKAPMLLIYKASSLESGVPSRFSGSGSGTEFTLTISSLQPDDFATYYCLQYNSYYTFGQGTKLEIK
notes: as for B1
B3: 75110_02I18A (antibody, V domains shown)
VH: EVQVVESGGGLVQPGGSLRLSCAASGFTFSSYDMHWVRQATGKGLEWVSTIGTAGDTYYPGSVKGRFTISRENAKNSLYLQMNSLRAGDTAVYYCARGGYYYYGMDVWGQGTTVTVSS
VL: EIVLTQSPGTLSLSPGERATLSCRASQSVSSSYLAWYQQKPGQSPRLLIHGASSRATGIPDRVSGSGSGTDFTLTISRLEPEDFAVYYCQQYGSSPFTFGPGTKVDIK
notes: as for B1
B4: 75110_05F19A (antibody, V domains shown)
VH: B3 VH with V4L, S31N, M34V, A40P, Y101D, M105L
VL: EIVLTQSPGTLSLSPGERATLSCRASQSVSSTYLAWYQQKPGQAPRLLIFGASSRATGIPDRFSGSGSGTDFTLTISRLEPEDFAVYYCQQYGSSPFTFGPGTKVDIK
notes: as for B1
B5: 75110_04G02A (antibody, V domains shown)
VH: not shown
VL: DIVMTQSPDSLAVSLGERATINCKSSQSVLYSSNNKNYLAWYQQKPGQPPKLLFYWASARESGVPDRFSGSGSGTDFTLTISSLQAEDVALYYCQQYFGSFPTFGQGTKLEIK
notes: as for B1
B6: 75110_01L08A (antibody, V domains shown)
VH: QVQLQESGPGLVKPSETLSLTCTVSGGSISHYYWSWIRQPPGKGLEWIGYIHYSGTTNYNPSLKSRVTISVDTSKNQLSLKLRSVTAADTAVYYCARDQGFSSGGMDVWGQGTTVTVSS
VL: not shown
notes: as for B1

The binders below were run against T1, human CD4 on cells (SKW3 cells; human PBMCs) (human, UniProt P01730 26-458) (assay: FACS confirmation, supernatant on SKW3 WT cells, anti-hu Kappa FITC (Bkrd gMFI = 2500)).
T1 construct: whole, on cells; SKW3 CD4 knockout cells served as the negative cell line for the WT vs KO ratios; also called hCD4; SKW3 WT

gMFI [gMFI] | Binder
6620 | B1
8050 | B2
5370 | B3
8510 | B4
4060 | B5
5520 | B6

Each binder was assayed against T1, human CD4 on cells (SKW3 cells; human …) (assay: FACS primary screen, non-clonal hybridoma supernatant; SKW3 WT vs SKW3 CD4 KO cells, anti-hKappa-FITC).

SKW3 WT vs KO anti-hKappa-FITC [fold] | Binder
1.8 | B1
1.9 | B2
2.2 | B3
2.8 | B4
1.5 | B5
2.6 | B6

The binders below were run against T1, human CD4 on cells (SKW3 cells; human …) (assay: FACS primary screen, non-clonal hybridoma supernatant; SKW3 WT vs SKW3 CD4 KO cells, anti-mFc-647).

SKW3 WT vs KO anti-mFc-647 [fold] | Binder
3.4 | B1
5.8 | B2
4.2 | B3
10.6 | B4
6.6 | B5
4.3 | B6

Each binder was assayed against T1, human CD4 on cells (SKW3 cells; human …) (assay: SKW3 FACS binning; competitor OKT4a added after supernatant, anti-hu A647 secondary (background 5000, max binding 35000)).

OKT4a anti-hu A647 signal in binning | Binder
35000 | B1
36400 | B2
44800 | B3
30000 | B4
22500 | B5
9030 | B6

These binders were tested against T1, human CD4 on cells (SKW3 cells; human …) (assay: FACS confirmation, supernatant on human PBMCs, anti-mFc 647, percent of viable cells).

Binder | CD4+ Percent Bound of Viable [%]
B1 | 26
B2 | 26
B3 | 29
B4 | 31
B5 | 27
B6 | 27

These binders were tested against T1, human CD4 on cells (SKW3 cells; human …) (assay: FACS confirmation, supernatant on SKW3 WT cells, anti-mFc 647 (Bkrd gMFI = 3300)).

gMFI [gMFI] | Binder
24400 | B1
45600 | B2
16500 | B3
42200 | B4
12000 | B5
18700 | B6

These binders were tested against T1, human CD4 on cells (SKW3 cells; human …) (assay: SKW3 FACS binning; competitor OKT4-A488 added after supernatant (background 2163, max binding 8200)).

OKT4 A488 signal in binning | Binder
8160 | B1
9330 | B2
9230 | B3
8920 | B4
9330 | B5
9750 | B6

The binders below were run against T2, huCD4-HIS (human, UniProt P01730 26-390, limits assumed) (assay: ELISA binning; competitor Ibalizumab, 100 ng/mL huCD4-HIS, anti-HIS HRP detection (background 45, max binding 3000000)).
T2 construct: Named only in the head of the ELISA binning column; not shown: HIS tag

Ibalizumab ELISA binning signal | Binder
45 | B1
45 | B2
291000 | B3
45 | B4
45 | B5
58200 | B6

Each binder was assayed against T1, human CD4 on cells (SKW3 cells; human …) (assay: FACS confirmation, supernatant on human PBMCs, anti-mFc 647, CD4+ gate).

CD4+ gate RL1 Binding | Binder
247000 | B1
231000 | B2
275000 | B3
281000 | B4
178000 | B5
200000 | B6

These binders were tested against T1, human CD4 on cells (SKW3 cells; human …) (assay: SKW3 FACS binning; competitor RPA-T4-PE-Dazzle 594 added after supernatant (background 783, max binding 15000)).

RPA-T4-PE-Dazzle 594 signal in binning | Binder
17200 | B1
16500 | B2
4410 | B3
15900 | B4
12100 | B5
19800 | B6

From US20220112288A1 (published 2022)
